Measured values: patent US6632627B2, “Glutamine: fructose-6-phosphate amidotransferase, its production and use” (Takeda Chemical Industries, Ltd., priority 1997, dated 2003)

B1: TGC028-3: human-derived protein having the amino acid sequence of SEQ ID NO:2 (615 residues), novel GFAT protein expressed in E. coli (protein)
chain: MCGIFAYMNYRVPRTRKEIFETLIKGLQRLEYRGYDSAGVAIDGNNHEVKERHIQLVKKRGKVKALDEELYKQDSMDLKVEFETHFGIAHTRWATHGVPSAVNSHPQRSDKGNEFVVIHNGIITNYKDLRKFLESKGYEFESETDTETIAKLIKYVFDNRETEDITFSTLVERVIQQLEGAFALVFKSVHYPGEAVATRRGSPLLIGVRSKYKLSTEQIPILYRTCTLENVKNICKTRMKRLDSSACLHAVGDKAVEFFFASDASAIIEHTNRVIFLEDDDIAAVADGKLSIHRVKRSASDDPSRAIQTLQMELQQIMKGNFSAFMQKEIFEQPESVFNTMRGRVNFETNTVLLGGLKDHLKEIRRCRRLIVIGCGTSYHAAVATRQVLEELTELPVMVELASDFLDRNTPVFRDDVCFFISQSGETADTLLALRYCKDRGALTVGVTNTVGSSISRETDCGVHINAGPEIGVASTKAYTSQFISLVMFGLMMSEDRISLQNRRQEIIRGLRSLPELIKEVLSLEEKIHDLALELYTQRSLLVMGRGYNYATCLEGALKIKEITYMHSEGILAGELKHGPLALIDKQMPVIMVIMKDPCFAKCQNALQQVTARQV
B2: TGC028-4: human-derived protein having the amino acid sequence of SEQ ID NO:3 (682 residues), constructed from TGC028-3 and a GFAT-like DNA fragment (protein)
chain: MCGIFAYMNYRVPRTRKEIFETLIKGLQRLEYRGYDSAGVAIDGNNHEVKERHIQLVKKRGKVKALDEELYKQDSMDLKVEFETHFGIAHTRWATHGVPSAVNSHPQRSDKGNEFVVIHNGIITNYKDLRKFLESKGYEFESETDTETIAKLIKYVFDNRETEDITFSTLVERVIQQLEGAFALVFKSVHYPGEAVATRRGSPLLIGVRSKYKLSTEQIPILYRTCTLENVKNICKTRMKRLDSSACLHAVGDKAVEFFFASDASAIIEHTNRVIFLEDDDIAAVADGKLSIHRVKRSASDDPSRAIQTLQMELQQIMKGNFSAFMQKEIFEQPESVFNTMRGRVNFETNTVLLGGLKDHLKEIRRCRRLIVIGCGTSYHAAVATRQVLEELTELPVMVELASDFLDRNTPVFRDDVCFFISQSGETADTLLALRYCKDRGALTVGVTNTVGSSISRETDCGVHINAGPEIGVASTKAYTSQFISLVMFGLMMSEDRISLQNRRQEIIRGLRSLPELIKEVLSLEEKIHDLALELYTQRSLLVMGRGYNYATCLEGALKIKEITYMHSEGILAGELKHGPLALIDKQMPVIMVIMKDPCFAKCQNALQQVTARQGRPIILCSKDDTESSKFAYKTIELPHTVDCLQGILSVIPLQLLSFHLAVLRGYDVDFPRNLAKSVTVE

Experiment: Detection of GFAT activity of the proteins (HPLC detection of PITC-bound glucosamine-6-phosphate)
Assay type: biochemical
Conditions: 1 μl recombinant protein in 100 μl reaction mixture; 6 mM glutamine, 10 mM fructose-6-phosphate; pH 7.5; room temperature, 5 hours
Description: GFAT activity of the proteins: TGC028-3 and TGC028-4 was measured in the following manner. In a solution (0.1 M K2HP04, 50 mM KCl, 50 mM HEPES, 1 mM EDTA, 5 mM DTT, pH 7.5) were added glutamine and fructose-6-phosphate to final concentrations of 6 mM and 10 mM, respectively. Then, in 100 μl of this reaction mixture was added 1 μl of TGC028-3 or TGC028-4 protein, and the reaction mixture was incubated at room temperature for 5 hours. Thereafter, the reaction mixture was subjected to centrifugal filtration using a Ultrafree C3GC (cut-off molecular weight: 10,000; Millipore) and the filtrate obtained was mixed with an equal volume of a solution consisted of methanol, water, and triethylamine at the ratio of 2:2:1. After the mixture was dried in vacuo, the residue was dissolved in 20 μl of a mixed solution of methanol, water, and triethylamine-phenyl isothiocyanate (PITC) at the ratio of 7:1:1:1 and the reaction was carried out at room temperature for 20 minutes. […] Elution was carried out using a mobile phase comprising 232 mM sodium acetate, 0.1% triethylamine and 5% acetonitrile (pH 6.0) at a flow rate of 1 ml/minute and PITC-bound glucosamine-6-phosphate was detected at UV 254 nm.

Molecule | GFAT activity: formation of glucosamine-6-phosphate (peak of PITC-bound glucosamine-6-phosphate by HPLC, UV 254 nm)
B1 | a peak was confirmed at the position corresponding to PITC-bound glucosamine-6-phosphate
B2 | a peak was confirmed at the position corresponding to PITC-bound glucosamine-6-phosphate
